Earlier results as cited in publication PMC6478893.

Target: Glu73 (UniProt position 86, GLTFTEKWNTD)

Voltage-dependent anion channel 1 (VDAC1) (Mus musculus (inferred from the title of ref. 51, 'mVDAC1'; the article text says only 'VDAC1'))
pKa: ~7.4
